Experimental data from patent publication US20090192048A1, “METHOD OF PRODUCING A […] AGENT FOR BINDING A LIGAND” (priority 2005, published 2009).
Ends that are not written are not given here.

Experiments:
[1] = Time-dependent persistence of peptide 2DOS-2 on a polypropylene hydrophobic surface in aqueous buffer; format: physicochemical
Procedure: The time-dependent persistence of peptide 2DOS-2 (see above) deposited onto a polypropylene hydrophobic surface in the presence of aqueous buffer was investigated as shown below:
Twelve 100 μl aliquots of 5 μM peptide 2DOS-2 in 5 mM tris-HCl (pH 8.0) in 75% (v/v) aqueous acetonitrile were dispensed to the wells of the top row of a Costar microtitre plate.
The peptide samples were allowed to evaporate to dryness in the dark.
The dried peptide samples in wells 1-10 were incubated with 250 μl of 1 M NaCl in 10 mM tris-HCl (pH 8.0) for the time indicated below at room temperature. All supernatants were pipetted up and down 8 times after incubation and the supernatants were then removed and placed in the wells of the bottom row of the microtitre plate.
The residual surface-bound peptides in all twelve wells were finally resuspended in 50 μl of 10 mM tris-HCl (pH 8.0) in 50% (v/v) aqueous acetonitrile and the microtitre plates were imaged at 200 μm resolution on a Typhoon Trio Plus variable mode imager (Amersham Biosciences) with the green (532 nm) laser and the 580 BP 30 filter at the PMT voltages indicated below and at normal sensitivity. The scan height was set at +3 mm and the sample was pressed during scanning.
The fluorescence images were analysed using ImageQuant TL v2003.03 (Amersham Biosciences).

[2] = Retention of peptides on Greiner polypropylene V-bottom wells; format: physicochemical; details: 400V scan
How it was run: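 Peptides (5 μM) and TAMRA dried from 5 mM tris-HCl pH 8.0 in 75% acetonitrile in V-bottom wells; some wells washed 15 min at room temperature with 1 M NaCl in 10 mM tris-HCl pH 8.0. Residue redissolved in 10 mM tris-HCl pH 8.0/50% acetonitrile; retained fluorescence imaged with 532 nm excitation, 580 BP 30 filter.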

With “N-TAMRA-Phe-Asp- Phe-Ala-Phe-Ser- Phe-Lys-Phe-C ({TAMRA}-FDFAFSFKF) [Peptide 2DOS-2]” the Percent retention ([1]; 0 minutes in 1 M NaCl/10 mM tris-HCl (pH 8.0)) was 90%, the Retained fluorescence ([1]; 0 minutes in 1 M NaCl/10 mM tris-HCl (pH 8.0), 300V scan) was 904,211 and the “Stability of retention on polypropylene over time (in words)” value ([1]; 1 M NaCl/10 mM tris-HCl (pH 8.0), up to 510 minutes) was “stable for extended periods of time”. For the same substance, the Percent retention ([1]; 2.5 minutes in 1 M NaCl/10 mM tris-HCl (pH 8.0)) was 90%, the Retained fluorescence ([1]; 2.5 minutes in 1 M NaCl/10 mM tris-HCl (pH 8.0), 300V scan) was 902,082 and the “Untreated fluorescence (average)” value ([1]; 300V scan, unwashed wells) was 1,000,613. For the same substance, the Percent retention ([1]; 5 minutes in 1 M NaCl/10 mM tris-HCl (pH 8.0)) was 85%, the Retained fluorescence ([1]; 5 minutes in 1 M NaCl/10 mM tris-HCl (pH 8.0), 300V scan) was 847,767 and the Percent retention ([1]; 10 minutes in 1 M NaCl/10 mM tris-HCl (pH 8.0)) was 79%. For the same substance, the Retained fluorescence ([1]; 10 minutes in 1 M NaCl/10 mM tris-HCl (pH 8.0), 300V scan) was 792,427, the Percent retention ([1]; 20 minutes in 1 M NaCl/10 mM tris-HCl (pH 8.0)) was 75% and the Retained fluorescence ([1]; 20 minutes in 1 M NaCl/10 mM tris-HCl (pH 8.0), 300V scan) was 749,522. The Percent retention ([1]; 40 minutes in 1 M NaCl/10 mM tris-HCl (pH 8.0)) was 77%, the Retained fluorescence ([1]; 40 minutes in 1 M NaCl/10 mM tris-HCl (pH 8.0), 300V scan) was 769,659 and the Percent retention ([1]; 80 minutes in 1 M NaCl/10 mM tris-HCl (pH 8.0)) was 74%. For the same substance, the Retained fluorescence ([1]; 80 minutes in 1 M NaCl/10 mM tris-HCl (pH 8.0), 300V scan) was 740,227, the Percent retention ([1]; 160 minutes in 1 M NaCl/10 mM tris-HCl (pH 8.0)) was 74% and the Retained fluorescence ([1]; 160 minutes in 1 M NaCl/10 mM tris-HCl (pH 8.0), 300V scan) was 739,600. For the same substance, the Percent retention ([1]; 320 minutes in 1 M NaCl/10 mM tris-HCl (pH 8.0)) was 81%, the Retained fluorescence ([1]; 320 minutes in 1 M NaCl/10 mM tris-HCl (pH 8.0), 300V scan) was 805,530 and the Percent retention ([1]; 510 minutes in 1 M NaCl/10 mM tris-HCl (pH 8.0)) was 80%. For the same substance, the Retained fluorescence ([1]; 510 minutes in 1 M NaCl/10 mM tris-HCl (pH 8.0), 300V scan) was 803,741, the Percent retention [2] was 78% and the Untreated fluorescence ([2]; unwashed) was 3,512,023. For the same substance, the Retained fluorescence ([2]; washed 15 minutes in 1 M NaCl in 10 mM tris-HCl (pH 8.0)) was 2,731,827.
